IntAct's records for PubMed 23183827

Target: syua_human SNCA (UniProt P37840)

effect of a mutation on the interaction: increasing interaction
Substance: Leucine-rich repeat serine/threonine-protein kinase 2 (Homo sapiens), Q5S007 G2019S
